Target: the molecule itself
Assay: crystal structure; DcpS (8-350, H268N) in 1:1 complex with m7GpppGU RNA, 5 mg/mL, 10 mM Hepes pH 7.5, 100 mM NaCl, 1.6 M NH4SO4; space group P212121, two dimers per asymmetric unit; 2.9 A

B1: DcpS from S. cerevisiae (residues 8-350; H268N) (enzyme, UniProt Q06151 8-350, looked up)
chain: FASLIKRFQFVSVLDSNPQTKVMSLLGTIDNKDAIITAEKTHFLFDETVRRPSQDGRSTPVLYNCENEYSCINGIQELKEITSNDIYYWGLSVIKQDMESNPTAKLNLIWPATPIHIKKYEQQNFHLVRETPEMYKRIVQPYIEEMCNNGRLKWVNNILYEGAESERVVYKDFSEENKDDGFLILPDMKWDGMNLDSLYLVAIVYRTDIKTIRDLRYSDRQWLINLNNKIRSIVPGCYNYAVHPDELRILVHYQPSYYHFNIHIVNIKHPGLGNSIAAGKAILLEDIIEMLNYLGPEGYMNKTITYAIGENHDLWKRGLEEELTKQLERDGIPKIPKIVNGFK
notes: Crystallised as a 1:1 complex with the capped dinucleotide m7GpppGU; also called Dcs1p; Scavenger Decapping Enzyme
binding result: binds

Source: paper PMC7431086, “Molecular basis of the selective processing of short mRNA substrates by the DcpS mRNA decapping enzyme” (Proceedings of the National Academy of Sciences of the …, 2020)
